Broadly, the Kd is a measure of binding affinity in units of concentration. A high value points to a looser complex.

Square brackets hold non-standard residues; d marks the D form. Ends that are not written are not given here. pS = N[C@@H](COP(=O)(O)O)C(=O)O

The text below walks through data of publication PMC7042354, “Distinct surfaces on Cdc5/PLK Polo-box domain orchestrate combinatorial substrate recognition during cell division” (Scientific Reports, 2020).

For one test, the system named is cdc5-S630Q mutant. In words: Proliferation assay (spot dilution) of cdc5 mutants with DNA damaging agents. In kind it is cell-based, Saccharomyces cerevisiae. The conditions noted are these: 0.4 μM 4-NQO on YPAD, 23 °C, n = 5. As for the experimental part:
All yeast strains used in this study were constructed in the W303 background and their relevant genotypes are summarized in (Supplemental Table 2). Standard conditions and procedures were used for yeast growth, sporulation and tetrad dissection. Growth of temperature-sensitive (ts) mutants in liquid media was performed at 23 °C (permissive temperature) and 37 °C (non-permissive temperature).
The temperature-sensitive (ts) growth behavior of cdc5 mutants was monitored on solid YPAD medium at the following temperatures: 23, 30 and 37.5 °C. Their sensitivity to DNA replication inhibitors and DNA damaging agents was assessed at 23 °C on YPAD medium containing either 100 mM hydroxyurea (HU) or 0.4 μM 4-nitroquinoline N-oxide (4-NQO). In all cases, cultures of yeast strains were diluted fivefold and subsequently spotted on solid medium, using a starting OD600 of 0.2 in the first dilution. Yeast were allowed to grow for approximately 36–72 hours at the indicated temperatures prior to scanning plates. The experiment was repeated 5 times (n = 5).

Test [1] concerns the target T1, polo-box domain of Cdc5 (residues 418–705) (Saccharomyces cerevisiae, UniProt P32562 418-705).
T1 construct: Cdc5, Polo-like kinase of Saccharomyces cerevisiae, residues 418-705 (polo-box domain with the preceding extension), subcloned in pPROEX HTa; Residues 418-459 disordered in the crystal; loop 594-601 possibly cleaved during crystallization of the apo form; also called Cdc5^PBD; PBD of Cdc5
T1 sequence (looked up): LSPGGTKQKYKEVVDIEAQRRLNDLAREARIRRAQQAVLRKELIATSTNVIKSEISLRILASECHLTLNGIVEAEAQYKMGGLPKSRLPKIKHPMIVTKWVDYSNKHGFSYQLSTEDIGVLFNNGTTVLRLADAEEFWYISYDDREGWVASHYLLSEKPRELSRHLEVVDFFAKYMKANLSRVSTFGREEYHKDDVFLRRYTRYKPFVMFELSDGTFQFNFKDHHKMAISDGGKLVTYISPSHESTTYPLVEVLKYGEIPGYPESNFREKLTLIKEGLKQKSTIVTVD
Put plainly: crystal structure; Cdc5 polo-box domain (5 mg/mL) mixed with Spc72^P at 1:15 protein:peptide, overnight at 4 °C; crystals in 100 mM Bis-TRIS pH 6.5, 25% PEG3350, 200 mM MgCl2, 100 mM CsCl. To be noted: both partners purified.

In test [2] the target is T2, polo-box domain of Cdc5 pre-incubated with the Dbf4 peptide (Cdc5-Dbf4) (Saccharomyces cerevisiae | S. cerevisiae, UniProt P32562 418-705).
T2 construct: Cdc5, Polo-like kinase of Saccharomyces cerevisiae, residues 418-705; Dbf4 of budding yeast, residues 73-96
In words: saturation-transfer difference (STD) NMR and 1D 1H NMR chemical shifts; ternary sample: 20 µM Cdc5 with both Dbf4 and Spc72^P peptides (500 µM); 20 mM sodium phosphate pH 7.0, 200 mM NaCl, 20 mM EDTA, >99% D2O; 298 K. The conditions noted are these: both partners purified.

Test [3] addresses T1, polo-box domain of Cdc5 (residues …). Put plainly: ITC; Nano ITC; 30 µM protein in the chamber cell, 280 µM peptide in the syringe; storage buffer (50 mM TRIS-HCl pH 7.0, 200 mM NaCl, 1.4 mM 2-mercaptoethanol, 5% glycerol) with 20 mM EDTA pH 8.0. To be noted: both partners purified. A general note: In ITC the heat of successive injections is recorded.
Test [4] shares this target. In words: crystal structure; Cdc5 polo-box domain (5 mg/mL) mixed with Dbf4 peptide at 1:10 protein:peptide, overnight at 4 °C; crystals in 20% PEG 3350, 200 mM sodium potassium tartrate, 10 mM trimethylamine hydrochloride. The conditions noted are these: both partners purified.

On to `O=[N+]([O-])c1cc[n+]([O-])c2ccccc12` [4-NQO, 4-nitroquinoline 1-oxide], for which, in the test with cdc5-S630Q mutant (36–72 h), the “growth of cdc5-S630Q mutant in presence of agent” value is recorded as “very little or no growth”. The “hypersensitivity of cdc5-S630Q mutant compared with smc5-6 cells” value in the test on cdc5-S630Q mutant is given as “comparable to that of cells defective in the Smc5-6 complex”.

B1: Spc72^P phosphorylated peptide (227-237) derived from the spindle-pole body protein Spc72 (peptide)
peptide: SLAQS[pS]PAGSQ
notes: Spc72, spindle pole body protein of budding yeast, residues 227-237; Peptide used for crystallization; also called Spc72^P phosphopeptide; source: synthetic peptide, bought: GenScript
Regarding B1, the binding result in test [1] is listed as “binds”.

B2: Spc72^P phosphorylated peptide (printed as 222-237) (peptide)
peptide: DKEEFLSLAQS[pS]PAGSQ
notes: Spc72, spindle pole body protein of budding yeast; Peptide used for ITC and NMR; also called Scp72^P; Spc72^P peptide; source: synthetic peptide, bought: GenScript
Turning to B2, the binding result in test [2] and in test [3] was “binds” each time.

B3: Dbf4-derived peptide (73-96) (peptide)
peptide: EKKRARIERARSIEGAVQVSKGTG
notes: Dbf4, regulatory subunit of the Dbf4-dependent kinase of budding yeast, residues 73-96; Peptide used for ITC and NMR; also called Dbf4 peptide; source: synthetic peptide, bought: GenScript
The molecule B3 showed a Kd in test [3] of about 500 nM.

B4: Dbf4-derived peptide (76-96) from the polo-interacting region of Dbf4 (peptide)
peptide: RARIERARSIEGAVQVSKGTG
notes: Dbf4, regulatory subunit of the Dbf4-dependent kinase of budding yeast, residues 76-96; Peptide used for crystallization; also called Dbf4 peptide; source: synthetic peptide, bought: GenScript
Consider B4, for which, in test [4], the binding result is on record as “binds”.
